Results as given in publication PMC3087496 (Biochemistry, 2011).

Target: wild-type His6-Gαi1 (rat, UniProt P10824 1-354)
Experiment: SEC

Sequence of wild-type His6-Gαi1 (P10824 whole entry): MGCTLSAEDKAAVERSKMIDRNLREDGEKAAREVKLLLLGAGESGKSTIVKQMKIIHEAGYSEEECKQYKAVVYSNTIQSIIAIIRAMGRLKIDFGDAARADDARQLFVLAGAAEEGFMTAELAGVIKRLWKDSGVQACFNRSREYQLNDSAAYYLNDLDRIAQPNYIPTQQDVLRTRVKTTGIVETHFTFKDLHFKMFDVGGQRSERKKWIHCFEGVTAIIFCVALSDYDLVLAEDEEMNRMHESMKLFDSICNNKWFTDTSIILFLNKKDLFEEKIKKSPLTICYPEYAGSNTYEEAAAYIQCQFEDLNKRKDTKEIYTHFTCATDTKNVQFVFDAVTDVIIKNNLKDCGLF

- binding result: binds
B1: TxHis6-ΔRGS14 (encoding amino acids 299-544, including the RBD domains and GL domain) (domain or fragment, rat, UniProt O08773 299-544, looked up)
chain: GKYCCVYLPDGTASLALARPGLTIRDMLAGICEKRGLSLPDIKVYLVGKEQKALVLDQDCTVLADQEVRLENRITFQLELVGLERVVRISAKPTKRLQEALQPILAKHGLSLDQVVLHRPGEKQLVDLENLVSSVASQTLVLDTLPDAKTREASSIPPCRSQGCLPRTQTKDSHLPPLSSSLSVEDASGSTGKRQTCDIEGLVELLNRVQSSGAHDQRGLLRKEDLVLPEFLQLPSQRPGSQEAPP
